Measured values: patent US20230147657A1 (INSERM INSTITUT NATIONAL DE LA SANT ET DE LA RECHERCHE M …, published 2023)
Like-named read-outs stand apart in the source and are kept apart here.

Experiments:
human CD45RC [1] = target: T1, human CD45RC (human, UniProt P08575 26-1306); assay: flow cytometry, EDTA whole blood, one of three healthy volunteers [2]
T1 construct: Native protein on human blood leukocytes / PBMC / T cells of healthy volunteers; also called hCD45RC
T1 sequence: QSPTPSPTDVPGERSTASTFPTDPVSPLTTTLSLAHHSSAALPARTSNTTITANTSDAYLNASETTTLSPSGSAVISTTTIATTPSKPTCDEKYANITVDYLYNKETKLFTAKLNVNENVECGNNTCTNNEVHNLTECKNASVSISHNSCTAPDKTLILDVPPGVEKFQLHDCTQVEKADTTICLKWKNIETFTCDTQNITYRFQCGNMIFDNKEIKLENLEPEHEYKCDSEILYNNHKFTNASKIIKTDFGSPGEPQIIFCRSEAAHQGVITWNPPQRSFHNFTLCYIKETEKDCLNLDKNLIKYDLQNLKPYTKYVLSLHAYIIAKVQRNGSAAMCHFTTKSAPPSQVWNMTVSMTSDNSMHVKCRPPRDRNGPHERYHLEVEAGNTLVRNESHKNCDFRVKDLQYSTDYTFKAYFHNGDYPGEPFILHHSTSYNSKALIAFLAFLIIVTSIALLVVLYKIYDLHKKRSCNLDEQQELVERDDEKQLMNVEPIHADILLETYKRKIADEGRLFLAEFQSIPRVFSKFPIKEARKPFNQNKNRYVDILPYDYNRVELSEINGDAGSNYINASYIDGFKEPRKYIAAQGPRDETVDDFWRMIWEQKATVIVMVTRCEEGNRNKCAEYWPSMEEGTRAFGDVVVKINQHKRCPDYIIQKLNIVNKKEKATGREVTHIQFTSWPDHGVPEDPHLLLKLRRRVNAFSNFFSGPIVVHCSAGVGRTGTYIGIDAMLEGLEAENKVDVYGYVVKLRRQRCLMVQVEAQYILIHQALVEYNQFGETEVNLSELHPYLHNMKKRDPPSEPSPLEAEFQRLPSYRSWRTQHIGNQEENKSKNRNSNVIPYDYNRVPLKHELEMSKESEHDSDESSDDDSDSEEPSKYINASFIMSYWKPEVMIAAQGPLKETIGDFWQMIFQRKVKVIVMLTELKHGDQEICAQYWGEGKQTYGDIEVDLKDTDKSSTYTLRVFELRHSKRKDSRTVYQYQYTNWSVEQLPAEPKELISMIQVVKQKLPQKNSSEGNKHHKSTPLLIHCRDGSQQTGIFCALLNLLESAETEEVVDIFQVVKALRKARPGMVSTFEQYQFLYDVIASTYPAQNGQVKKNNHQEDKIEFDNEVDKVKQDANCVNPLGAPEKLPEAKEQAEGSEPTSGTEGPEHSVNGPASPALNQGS

human CD45RC [2] = target: T1, human CD45RC; assay: flow cytometry, EDTA whole blood, one of three healthy volunteers; very few events [2]
human CD45RC [3] = target: T1, human CD45RC; assay: flow cytometry, EDTA whole blood, one of three healthy volunteers [3]
human CD45RC [4] = target: T1, human CD45RC; assay: flow cytometry, EDTA whole blood, one of three healthy volunteers [1]
human CD45RC [5] = target: T1, human CD45RC; assay: flow cytometry on T cells of human PBMC; biotin anti-human IgG + streptavidin PerCP-Cy5.5
human CD45RC [6] = target: T1, human CD45RC; assay: as above; remark: listed apart in the source

Which results are given for “MT2 (murine anti-hCD45RC antibody, commercially available)”?
% of ILC1 in the CD45RC high gate (top) (human CD45RC [1]): 9.3%; % of ILC1 in the CD45RC intermediate/low gate (middle) (human CD45RC [1]): 27.5%; % of ILC1 in the CD45RC negative gate (bottom) (human CD45RC [1]): 63.2%; % of ILC2 in the CD45RC high gate (top) (human CD45RC [1]): 45%; % of ILC2 in the CD45RC intermediate/low gate (middle) (human CD45RC [1]): 49.5%; % of ILC2 in the CD45RC negative gate (bottom) (human CD45RC [1]): 5.5%; % of MAIT cells in the CD45RC high gate (top) (human CD45RC [1]): 5.89%; % of MAIT cells in the CD45RC intermediate/low gate (middle) (human CD45RC [1]): 71%; % of MAIT cells in the CD45RC negative gate (bottom) (human CD45RC [1]): 23.2%; % of NKT cells in the CD45RC high gate (top) (human CD45RC [1]): 34.4%; % of NKT cells in the CD45RC intermediate/low gate (middle) (human CD45RC [1]): 54.2%; % of NKT cells in the CD45RC negative gate (bottom) (human CD45RC [1]): 11.4%; % of iNKT cells in the CD45RC high gate (top) (human CD45RC [1]): 24.1%; % of iNKT cells in the CD45RC intermediate/low gate (middle) (human CD45RC [1]): 61.6%; % of iNKT cells in the CD45RC negative gate (bottom) (human CD45RC [1]): 14.3%; % of monocytes CD14+ in the CD45RC high gate (top) (human CD45RC [1]): 0.43%; % of monocytes CD14+ in the CD45RC intermediate/low gate (middle) (human CD45RC [1]): 43.9%; % of monocytes CD14+ in the CD45RC negative gate (bottom) (human CD45RC [1]): 55.6%; % of monocytes CD14highCD16- in the CD45RC high gate (top) (human CD45RC [1]): 0.091%; % of monocytes CD14highCD16- in the CD45RC intermediate/low gate (middle) (human CD45RC [1]): 38.3%; % of monocytes CD14highCD16- in the CD45RC negative gate (bottom) (human CD45RC [1]): 61.6%; % of ILC3 in the CD45RC high gate (top) (human CD45RC [2]): 50%; % of ILC3 in the CD45RC intermediate/low gate (middle) (human CD45RC [2]): 50%; % of ILC3 in the CD45RC negative gate (bottom) (human CD45RC [2]): 0%; % of basophils in the CD45RC high gate (top) (human CD45RC [3]): 0%; % of basophils in the CD45RC intermediate/low gate (middle) (human CD45RC [3]): 7.3%; % of basophils in the CD45RC negative gate (bottom) (human CD45RC [3]): 92.7%; % of eosinophils in the CD45RC high gate (top) (human CD45RC [3]): 0.47%; % of eosinophils in the CD45RC intermediate/low gate (middle) (human CD45RC [3]): 90.5%; % of eosinophils in the CD45RC negative gate (bottom) (human CD45RC [3]): 9.08%; % of mDC in the CD45RC high gate (top) (human CD45RC [3]): 0%; % of mDC in the CD45RC intermediate/low gate (middle) (human CD45RC [3]): 14.3%; % of mDC in the CD45RC negative gate (bottom) (human CD45RC [3]): 85.7%; % of monocytes CD14intCD16+ in the CD45RC high gate (top) (human CD45RC [3]): 6.45%; % of monocytes CD14intCD16+ in the CD45RC intermediate/low gate (middle) (human CD45RC [3]): 87.7%; % of monocytes CD14intCD16+ in the CD45RC negative gate (bottom) (human CD45RC [3]): 5.87%; % of neutrophils in the CD45RC high gate (top) (human CD45RC [3]): 0.014%; % of neutrophils in the CD45RC intermediate/low gate (middle) (human CD45RC [3]): 19.3%; % of neutrophils in the CD45RC negative gate (bottom) (human CD45RC [3]): 80.7%; % of pDC in the CD45RC high gate (top) (human CD45RC [3]): 1.84%; % of pDC in the CD45RC intermediate/low gate (middle) (human CD45RC [3]): 97.9%; % of pDC in the CD45RC negative gate (bottom) (human CD45RC [3]): 0.23%; % of B cells in the CD45RC high gate (top) (human CD45RC [4]): 79.9%; % of B cells in the CD45RC intermediate/low gate (middle) (human CD45RC [4]): 20.1%; % of B cells in the CD45RC negative gate (bottom) (human CD45RC [4]): 0%; % of CD3+ TCRab cells in the CD45RC high gate (top) (human CD45RC [4]): 8.34%; % of CD3+ TCRab cells in the CD45RC intermediate/low gate (middle) (human CD45RC [4]): 46.2%; % of CD3+ TCRab cells in the CD45RC negative gate (bottom) (human CD45RC [4]): 45.5%; % of CD3+ TCRgd cells in the CD45RC high gate (top) (human CD45RC [4]): 1.93%; % of CD3+ TCRgd cells in the CD45RC intermediate/low gate (middle) (human CD45RC [4]): 90.6%; % of CD3+ TCRgd cells in the CD45RC negative gate (bottom) (human CD45RC [4]): 7.46%; % of CD4+ T cells in the CD45RC high gate (top) (human CD45RC [4]): 3.64%; % of CD4+ T cells in the CD45RC intermediate/low gate (middle) (human CD45RC [4]): 47.2%; % of CD4+ T cells in the CD45RC negative gate (bottom) (human CD45RC [4]): 49.2%; % of CD4+ Treg (CD25+CD127-) in the CD45RC high gate (top) (human CD45RC [4]): 3.52%; % of CD4+ Treg (CD25+CD127-) in the CD45RC intermediate/low gate (middle) (human CD45RC [4]): 19.8%; % of CD4+ Treg (CD25+CD127-) in the CD45RC negative gate (bottom) (human CD45RC [4]): 76.7%; % of CD8+ T cells in the CD45RC high gate (top) (human CD45RC [4]): 38.8%; % of CD8+ T cells in the CD45RC intermediate/low gate (middle) (human CD45RC [4]): 39.7%; % of CD8+ T cells in the CD45RC negative gate (bottom) (human CD45RC [4]): 21.5%; % of NK cells in the CD45RC high gate (top) (human CD45RC [4]): 28.6%; % of NK cells in the CD45RC intermediate/low gate (middle) (human CD45RC [4]): 70.4%; % of NK cells in the CD45RC negative gate (bottom) (human CD45RC [4]): 1%; % of T cells in the CD45RC high gate (top) (human CD45RC [4]): 7.43%; % of T cells in the CD45RC intermediate/low gate (middle) (human CD45RC [4]): 49.7%; % of T cells in the CD45RC negative gate (bottom) (human CD45RC [4]): 42.9%

B1: Anti-45RC Variant E (antibody, human IgG1, kappa, V domains shown)
VH: EVQLVQSGAEVKKPGESLKISCKASGYTFTNYYIGWVRQMPGKGLEWIGDIFPGGDYANSNEKFKGQVTLSADKSISTAYLQLSSLKASDTAMYYCVRRNFDYWGQGTLVTVSS
VL: EIVLTQSPDFQSVTPKEKVTITCSASSSVSYMHWFQQKPDQSPKLWIYNTSNLPSGVPSRFSGSGSGTDYTLTINSLEAEDAATYYCQQRSSYPLTFGGGTKVEIKR
notes: also called humanized ABIS-45RC variant E
What does the source list for B1?
% of T cells in the CD45RC gate at 1 µg/mL (human CD45RC [5]): 53.7%; % of T cells in the CD45RC gate at 2 µg/mL (human CD45RC [5]): 48.9%

B2: Anti-45RC Variant F (antibody, human IgG1, kappa, V domains shown)
VH: B1 VH
VL: EIVLTQSPATLSLSPGERATLSCSASSSVSYMHWFQQKPGQAPRLWIYNTSNLPSGIPARFSGSGSGTDYTLTISSLEPEDFAVYYCQQRSSYPLTFGGGTKVEIKR
notes: also called humanized ABIS-45RC variant F
For B2, which “% of T cells in the CD45RC gate at 1 µg/mL” value (human CD45RC [5]) is on record?
Its value is 58.8%.

And the “% of T cells in the CD45RC gate at 2 µg/mL” value (human CD45RC [5])?
The value was 57.2%.

B3: Anti-45RC Variant G (antibody, human IgG1, kappa, V domains shown)
VH: QVQLVESGGGLVKPGGSLRLSCAASGYTFTNYYIGWIRQAPGKGLEWIGDIFPGGDYANSNEKVKGRFTLSADTAKNSAYLQMNSLRAEDTAVYYCVRRNFDYWGQGTLVTVSS
VL: B1 VL
notes: also called humanized ABIS-45RC variant G
Which “% of T cells in the CD45RC gate at 1 µg/mL” value (human CD45RC [5]) does the source give for B3 here?
Its value is 55.7%.

And the “% of T cells in the CD45RC gate at 2 µg/mL” value (human CD45RC [5])?
Its value is 54.2%.

B4: Anti-45RC Variant A (antibody, human IgG1, kappa, V domains shown)
VH: QVQLVQSGAEVKKPGASVKVSCKASGYTFTNYYIGWVRQAPGQGLEWIGDIFPGGDYANSNEKFKGRVTLTADTSISTAYMELSRLRSDDTVVYYCVRRNFDYWGQGTLVTVSS
VL: DIQLTQSPSFLSASVGDRVTITCSASSSVSYMHWFQQKPGKAPKLWIYNTSNLPSGVPSRFSGSGSGTEYTLTISSLQPEDFATYYCQQRSSYPLTFGGGTKVEIKR
notes: also called humanized ABIS-45RC variant A
What does the source list for B4?
% of T cells in the CD45RC gate at 1 µg/mL (human CD45RC [6]): 58.2%; % of T cells in the CD45RC gate at 2 µg/mL (human CD45RC [6]): 60.2%
